Results on four molecules are retold here after patent US20260374869 (published 2026).

The chains are these.
T1: human CD2 (human, UniProt P06729)
T1 chain: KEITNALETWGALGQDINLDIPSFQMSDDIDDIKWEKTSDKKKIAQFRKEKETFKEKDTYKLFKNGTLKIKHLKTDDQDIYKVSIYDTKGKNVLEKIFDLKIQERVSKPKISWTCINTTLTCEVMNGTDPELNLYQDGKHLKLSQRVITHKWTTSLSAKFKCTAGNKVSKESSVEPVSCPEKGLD

B1: DARPin #15 (designed binder)
chain: DLGDKLLEAAQYGQDDEVRILLAAGADVNAKDNSGSTPLHLAAQHGHLEIVEVLLKAGADVNAKDWWGWTPLHEAATTGHLEIVEVLLKAGADVNAQDKSGKTPADLAAHAGHEDIAEVLQKAA
B2: DARPin #3 (designed binder)
chain: DLGKKLLQAARAGQLDEVRELLKAGADVNAKDQQGVTPLHIAAYGHLEIVEVLLKAGADVNAKDLQGETPLHVAAWAGHLEIVEVLLKAGADVNAKDKHGITPLHLAAKKGHLEIVEVLLKAGAEVNAQDKSGKTPADLAARAGHQDIAEVLQKAA
B3: DARPin #2 (designed binder)
chain: DLGKKLLQAARAGQLDEVRELLKAGADVNAKDQHGFTPLHVAAKEGHLEIVEVLLKAGADVNAKDSFGETPLHLAAEHGHLEIVEVLLKAGADVNAKDQSGWTPLHLAAWAGHLEIVEVLLKAGADVNAQDKSGKTPADLAARAGHQDIAEVLQKAA
B4: DARPin #1 (designed binder)
chain: DLGVKLLHAAQTGQDDEVRILLAAGADVNAKDWLGVTPLHYAAWIGHLEIVEVLLKAGADVNAKDWQGQTPLHLAAQWGHLEIVEVLLKAGADVNAQDNHGNTPADLAAEVGHEDIAEVLQKAA

This assay deals with T1, human CD2. In words: SPR. For orientation: In SPR one partner is held on a chip, and binding of the other changes the refractive index at the surface.
The term Kd denotes the equilibrium constant for the complex coming apart. High values mean weaker binding, low ones tighter binding. For the molecule B1, the Kd worked out at 15.9 nM.
With B2, the Kd worked out at 48 nM.
Next, B3: 382 nM; B4: 3.28 nM.
